Data as given in PMC6200986.

System: YlxR (Bacillus subtilis 168)
Assay: EMSA
Conditions: 10 mM Tris-HCl pH 8.0, 100 mM KCl, 10 mM MgCl2, 1 mM DTT, 10% glycerol, 12 ul; 1% agarose gel in Tris-acetate-EDTA, loaded immediately after protein addition …

Substance: pET28b(+) supercoiled
- Kd: 100 nM
